According to the nanobody polyreactivity screen of Harvey et al. (2022):

Experiment: yeast display, Sf9 membrane polyspecificity reagent, FACS + sequencing; frameworks hold sequencing errors
How it was run: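 A nanobody's polyreactivity label depends on the gate it was sorted from. Yeast display cells were stained with 10% biotinylated, detergent-solubilized Sf9 membrane reagent for 1 hour at 4 °C, enriched on streptavidin microbeads and sorted by FACS. The low and high (top ~1%) gates were set on anti-HA fluorescence for expression and streptavidin fluorescence for reagent binding.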

Sequence | polyreactivity (PSR sort gate)
QVQLVESGGGLVQAGGSLRLSCAASGSTISRYTMGWYPQAPGKERELVAAIRRSGSSTYYADSVKGRYTISRDNAKYTVYLQMNSLKREDTAVYYCAVGRYRYGYWGQGTQVTVSS | high polyreactivity
QVQLVESGGGLVQAGGSLRLSCAASGSTITNYAMGWYRQAPGKERELVAAIRYSGGRTYYADSVKGRFTISRDNANNPGYLQMNSLKPEDTAVYYCAADRASYFTYAYGYWGQGTQVTVSS | high polyreactivity
QVQLVESGGGLVQAGGSLRLSCAASGSTITSNAMGWYRQAPGKERELVAAINTSGGSTYYADSVKGRFTISRDNAKNTVYLQMNSLKPEDTAVYYCNADYGGDEYRGLEFDYWGQGTQVTVSS | low polyreactivity
QVQLVESGGGLVQAGGSLRLSCAASGSTIVRYAMGWYRQAPGKERELVAAISSRGGSTYYADSVKGRFTNSRDNAKNTVYLQMNSLKAEDTGVYYCAAAQRCTNAYRVGSWGLGTQVTVSS | high polyreactivity
QVQLVESGGGLVQAGGSLRLSCAASGSTIVYYAMGWYIQAPGKERELVAAITSGGSTYDADSVKGRCTISRDNAKNTVYLQMNSQKPEDTAVYYCHADWWRGDEAYRMYYWGQGTQVTVSS | low polyreactivity
QVQLVESGGGLVQAGGSLRLSCAASGSTIYAMGWYRQAPGKERELVAGINRSGTRTYYADSVKGRFTISRDNAKNTVYLQMNSLKPEDTAVYYCAALVYRPTYGYIFDYWGQGTQVTVSS | high polyreactivity
QVQLVESGGGLVQAGGSLRLSCAASGSTIYENAMGWYRQAPGKERELVAGISRGGGSTYYADSVKGRFTISRDNAKNTVYLQMNSLKPEDTAVYYCAAGSRVQGGYWGQGTQVTVSS | low polyreactivity
QVQLVESGGGLVQAGGSLRLSCAASGSTIYFNGMGWYRQAPGKERELVAAITSGGSTDYADSVKGRFTISRDNAKNTVYLQMNSLKPEDTAVYYCAADHYGRYDYWGQGTQVTVSS | low polyreactivity
QVQLVESGGGLVQAGGSLRLSCAASGSTIYFYAMGWYRQAPGKERELVAAITWSGGRTYYADSVKGRFTISRDNAKNTVYLQMNSLKPEDTAVYYCAAVRPPLARLYVAAKRFDSWGQGTQVTVSS | low polyreactivity
QVQLVESGGGLVQAGGSLRLSCAASGSTIYGYAMGWDRQAPGKERELVAAISYRGGSTYYADSVKGRFTISRDNAKNTVYLQMNSLKPEDTAVYYCAALGDDATSYGYWGQGTQVTVSS | high polyreactivity
QVQLVESGGGLVQAGGSLRLSCAASGSTIYHNAMGWYRQAPGKERELVAAISSGGSTHYADSVKGRFTISRDNAKNTVYLQMNSLKPEDTAVYYCATYSSVRQLLWGNGYWGQGTQVTVSS | high polyreactivity
QVQLVESGGGLVQAGGSLRLSCAASGSTIYNYAMGSYRPAPGKVRELVASITWNGGSTYYADSVKGRFTISRDNAKNTVYLQMNSLKPEDTAVYYCAAEWTWTYPYDYWGQGTQVTVSS | low polyreactivity
QVQLVESGGGLVQAGGSLRLSCAASGSTIYWYAMGWYRQAPGKERELVAAISLSGGSTYYADSVKGRFTFSRDNAKNTVYLQMNSLKPEDTAVYYCAARTSYYVYRHPSGRYDYWGQGTQVTVSS | low polyreactivity
QVQLVESGGGLVQAGGSLRLSCAASGSTIYWYAMGWYRQAPGKERELVAAISLSGGSTYYADSVKGRFTISRDNAKNTVYLQMNSLKPEDTAVYYCAARTSYYVYRHPSGRYDYWGQGTQVTVSS | low polyreactivity
QVQLVESGGGLVQAGGSLRLSCAASGSTIYWYTMGWYRQPPGKEMELVAAITGGTGNTYYADSVKGRFTISRDNAKNTVYLQMNSLKPEDTAVYYCAAYYRRYDYDYWGQGTQVTVSS | high polyreactivity
QVQLVESGGGLVQAGGSLRLSCAASGSTIYYNAMGWYRQAPGKERELVARISRSGGSTYADSVKGRFTISRDNAKNTVYLQMNSLKPEDTAVYYCNADAYGTPEFTSYAVRYDYWGQGTQVTVSS | low polyreactivity

Sequence | polyreactivity (PSR sort gate)
QVQLVESGGGLVQAGGSLRLSCAASGSTKYYVMGWYRQAPGKERELVAAISRGSSTYYADSVKGRFTISRDNAKNTVYLQMNSLKPEDTAVYYCAARGPWQAPYDYWGQGTQVTVSS | high polyreactivity
QVQLVESGGGLVQAGGSLRLSCAASGSTLAFYAMGWYRQATGKQRELVAAISRSGGRTYYSDSVKGRFTISRDNAKNTVYLQMNSLKPEDTAVYYCAAYWYYYWWYDYWGQGTQVTVSS | high polyreactivity
QVQLVESGGGLVQAGGSLRLSCAASGSTLAIYAMGWYRQAPGKERELVAAISGGGSTYADSVKGRFTISRDNAKNTVYLQMNSLKPEETAVYYCNADGWGDRFWSNFRFDYWGQGTQVTVSS | low polyreactivity
QVQLVESGGGLVQAGGSLRLSCAASGSTLANYAMGWYRQAPGKERELVAAINSGGSTYYADSVKGRFTISRDNAKNTVYLQMNSLKPEDTAVYYCAAETPNYYGWWEPVWHYYWGQGTQVTVSS | high polyreactivity
QVQLVESGGGLVQAGGSLRLSCAASGSTLARYTMGWYRQAPGKERELVATIDFGGVNTYYADSVKGRFTISRDTAKNTVYLQMNSLKPEDTAVYYCAAYNRLKRNVLYDYWGQGTQVTVSS | low polyreactivity
QVQLVESGGGLVQAGGSLRLSCAASGSTLASNAKGWYRQAPGKERELVAAIRVSGASTYYADSVKGRFTISRDNAKNTVYLQMNSLKPEDTAVYYCAADYQFGVIYYYWGQGTQVTVSS | low polyreactivity
QVQLVESGGGLVQAGGSLRLSCAASGSTLATNAMGWYRQAPGKERELVAYADSVKGRFTISRDNAKNTVYLQMNSLNPEDTAVYYCNVVFRYAYGVYYTPEFYYWGQGTQVTVSS | low polyreactivity
QVQLVESGGGLVQAGGSLRLSCAASGSTLATYTMGWYRQAPGKERELVAAISFGGSTYYADSVKGRFTISRDNAKNTVYLQMNSLKPEDTAVYYCAVYGDSYWGAYYYSDGYWGQGTQVTVSS | low polyreactivity
QVQLVESGGGLVQAGGSLRLSCAASGSTLDEYVMGWYRQAPGKEREFVAAISRSGSSTYYADSVKGRFTISRDNAKNTVYLQMNSLKPEDTAVYYCAARLYSSVVRYRYGYWGQGTQVTVSS | high polyreactivity
QVQLVESGGGLVQAGGSLRLSCAASGSTLDIYAMGWYRQAPGKERELVATINSTGGSTYYADSVKGRFTISRDNAKNTVYLQMNSLNPEDTAVYYCAADFGLFGPTTGYIRPYDYWGQGTQVTVSS | low polyreactivity
QVQLVESGGGLVQAGGSLRLSCAASGSTLDKYAMGWYRQAPGKERELVAAISSSGGSTYYADSVKGRFTISRDNAKNTVYLQMNSLKPEDTAVYYCAARFFRGRYLDDYWGQGTQVTVSS | high polyreactivity
QVQLVESGGGLVQAGGSLRLSCAASGSTLDPNVMGWYRQAPGKEREWVAAITTGGSTYYADSVKGRFTFSRDNAKNTVYLQLYSLKPEDTAFYYCNKDIGWLAHSRIWLWYDYWGQGTQVTVAS | low polyreactivity
QVQLVESGGGLVQAGGSLRLSCAASGSTLDSYARGWYRQAPGTERELVAVIDTGGTTNYADSVKGRFTISRDNAKNTVYLQMNSLKPEDTAVYYCAADYAYYGYWFEGYDYWGQGTQVTVSS | low polyreactivity
QVQLVESGGGLVQAGGSLRLSCAASGSTLGANAMGWYRQAPGKERELVAAISISDGDTYYADSVKGRFTISRDNAKNPVYLQMNSLKPEDTAVYYCAADYWFQYRWYDYWGQGTQVTVSS | high polyreactivity
QVQLVESGGGLVQAGGSLRLSCAASGSTLGAYAMGWYRQAPGKERELVAAISRSGGNTYYADSVKGRFTISRDNAKNTVYLQMNSLKPEDTAVYYCAAVKLFLGLCYDYWGQGTQVTVSS | low polyreactivity
QVQLVESGGGLVQAGGSLRLSCAASGSTLGGNAMGWYRQEPGKERELGAAITSSAGSTYYADSVKGRYTISRDNAKNTVYLQMNSLQPEDTAVYYCAADYSRDEYDYWGQGTEVTVSS | low polyreactivity
